{"source": "patent US20170009224A1", "molecular_target": "lambda repressor cI comprising a TEV protease cleavage site (ENLYFQ(G/S)) within the interdomain linker (UniProt P03034)", "assay": "cell-based or functional assay", "data": [{"substance": "TEV protease (wild type) (from UniProt P04517 2038-2279) (enzyme)", "values": [{"measurement": "gene expression from the pR promoter driving pIII and luciferase", "value": "> 100", "unit": "fold"}]}]}
